B1: glucose oxidase expressed in BY-2 lysate (enzyme)
chain: LPHYIRSNGIEASLLTDPKDVSGRTVDYIIAGGGLTGLTTAARLTENPNISVLVIESGSYESDRGPIIEDLNAYGDIFGSSVDHAYETVELATNNQTALIRSGNGLGGSTLVNGGTWTRPHKAQVDSWETVFGNEGWNWDNVAAYSLQAERARAPNAKQIAAGHYFNASCHGVNGTVHAGPRDTGDDYSPIVKALMSAVEDRGVPTKKDFGCGDPHGVSMFPNTLHEDQVRSDAAREWLLPNYQRPNLQVLTGQYVGKVLLSQNGTTPRAVGVEFGTHKGNTHNVYAKHEVLLAAGSAVSPTILEYSGIGMKSILEPLGIDTVVDLPVGLNLQDQTTATVRSRITSAGAGQGQAAWFATFNETFGDYSEKAHELLNTKLEQWAEEAVARGGFHNTTALLIQYENYRDWIVNHNVAYSELFLDTAGVASFDVWDLLPFTRGYVHILDKDPYLHHFAYDPQYFLNELDLLGQAAATQLARNISNSGAMQTYFAGETIPGDNLAYDADLSAWTEYIPYHFRPNYHGVGTCSMMPKEMGGVVDNAARVYGVQGLRVIDGSIPPTQMSSHVMTVFYAMALKISDAILEDYASMQ
B2: glucose oxidase, commercial standard purified from Aspergillus niger (enzyme)
chain: B1 chain

Target: the molecule itself
Assay: SEC

Row | Protein | stoichiometry N
1 | B1 | 2
2 | B2 | 2

— article doi:10.1101/2022.11.10.515920 (bioRxiv, 2022)
